Results taken from patent US20250019439A1 (Adimab, published 2025).

Assays:
[1] = target: T1, ADI-48576; assay: SPR Carterra, yeast anti-ID
T1 construct: pH-dependent anti-CD3 antibody made in CHO cells
Experimental: (§1) Kinetic analysis was conducted at 25° C. in an HBSTE running buffer system (Carterra Cat #3630) using a Carterra LSA (Carterra USA, Salt Lake City, UT). The sample compartment was maintained at 20° C. for the duration of each experiment.
(§2) For antibody capture experiments, a goat anti-human Fc antibody (Jackson ImmunoResearch) was covalently coupled to an HC30M sensor chip surface via standard amine coupling (1:1 EDC:NHS) and then blocked with ethanolamine (1.0 M, pH 8.5). Covalent coupling steps were performed in 25 mM MES buffer (Carterra, Cat #3625) plus 0.05% Tween20. The anti-CD3 antibodies (100 nM in running buffer) were flowed over discrete regions of interest on the chip surface for 5 minutes. […] Dissociation of the anti-idiotype antibodies was monitored for 300s. Several blank buffer samples were injected over the entire chip surface at the start of each non-regenerative kinetic cycle. The preceding blank buffer injection was used for blank surface subtraction. At the end of each non-regenerative kinetic cycle, all surfaces were regenerated via two 30s injections of 10 mM glycine, pH 1.7.
(§3) For data processing and fitting, sensorgrams were double reference subtracted with a baseline drift correction of 4 RU. Sensorgrams were y-aligned and baseline corrected, filtered and cropped to include only the association and dissociation steps. Data was fitted to a 1:1 binding model using Carterra Kinetics Data Analysis software version 1.7.1.3055.

[2] = target: T2, CTL-62227; assay: SPR Carterra, yeast anti-ID
T2 construct: also called odronextamab
Experimental: as §1, §2, §3

[3] = target: T3, CTL-62228; assay: SPR Carterra, yeast anti-ID
T3 construct: also called glofitamab
Experimental: as §1, §2, §3

[4] = target: T4, CTL-62240; assay: SPR Carterra, yeast anti-ID
T4 construct: also called ONO-4685
T4 sequence (VH, as listed by the source, chain 1 of 2): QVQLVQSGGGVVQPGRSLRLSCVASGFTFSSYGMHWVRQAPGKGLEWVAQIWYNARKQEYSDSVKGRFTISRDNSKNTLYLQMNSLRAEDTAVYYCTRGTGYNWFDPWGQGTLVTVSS
T4 sequence (VL, as listed by the source, chain 2 of 2): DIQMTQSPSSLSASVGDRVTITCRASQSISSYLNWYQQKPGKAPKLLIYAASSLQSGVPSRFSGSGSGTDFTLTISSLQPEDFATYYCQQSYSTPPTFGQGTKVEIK
Experimental: as §1, §2, §3

[5] = target: T5, ADI-50024; assay: SPR Carterra avidity, yeast anti-ID
T5 construct: anti-CD3 antibody made in CHO cells, captured by anti-human Fc
T5 sequence (VH, as listed by the source limits assumed, chain 1 of 2): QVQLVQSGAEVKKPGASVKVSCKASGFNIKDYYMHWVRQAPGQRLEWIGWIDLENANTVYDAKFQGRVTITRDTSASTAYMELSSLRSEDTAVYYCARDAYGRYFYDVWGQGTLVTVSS
T5 sequence (VL, as listed by the source limits assumed, chain 2 of 2): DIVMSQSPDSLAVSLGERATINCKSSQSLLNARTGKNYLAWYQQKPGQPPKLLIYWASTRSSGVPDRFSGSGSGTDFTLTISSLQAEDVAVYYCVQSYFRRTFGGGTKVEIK
Experimental: as §1, §2, §3

[6] = target: T6, ADI-70326; assay: SPR Carterra avidity, yeast anti-ID
T6 construct: anti-CD3 antibody made in CHO cells, captured by anti-human Fc
Experimental: as §1, §2, §3

[7] = target: T7, ADI-70327; assay: SPR Carterra avidity, yeast anti-ID
T7 construct: anti-CD3 antibody made in CHO cells, captured by anti-human Fc
T7 sequence (VH, as listed by the source limits assumed, chain 1 of 2): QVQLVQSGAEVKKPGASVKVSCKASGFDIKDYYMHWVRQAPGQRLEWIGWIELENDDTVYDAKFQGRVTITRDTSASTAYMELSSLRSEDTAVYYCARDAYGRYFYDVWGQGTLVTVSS
Experimental: as §1, §2, §3

[8] = target: T8, ADI-70330; assay: SPR Carterra avidity, yeast anti-ID
T8 construct: anti-CD3 antibody made in CHO cells, captured by anti-human Fc
T8 sequence (VH, as listed by the source limits assumed, chain 1 of 2): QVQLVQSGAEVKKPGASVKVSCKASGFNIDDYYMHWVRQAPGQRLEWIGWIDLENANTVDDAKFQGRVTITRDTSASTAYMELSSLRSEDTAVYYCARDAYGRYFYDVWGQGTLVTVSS
Experimental: as §1, §2, §3

[9] = target: T9, ADI-26906 IgG; assay: SPR Carterra avidity, yeast anti-ID
T9 construct: anti-CD3 IgG
T9 sequence (VH, as listed by the source limits assumed, chain 1 of 2): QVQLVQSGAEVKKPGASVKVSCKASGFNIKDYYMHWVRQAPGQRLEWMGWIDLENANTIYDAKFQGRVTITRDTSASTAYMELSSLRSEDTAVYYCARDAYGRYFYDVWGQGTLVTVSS
T9 sequence (VL, as listed by the source limits assumed, chain 2 of 2): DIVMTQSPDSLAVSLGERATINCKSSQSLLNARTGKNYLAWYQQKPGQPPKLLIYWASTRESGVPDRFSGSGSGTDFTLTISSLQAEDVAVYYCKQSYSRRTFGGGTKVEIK
Experimental: as §1, §2, §3

[10] = target: T10, ADI-67450; assay: SPR Carterra avidity, yeast anti-ID
T10 construct: anti-CD3 antibody made in CHO cells, captured by anti-human Fc
Experimental: as §1, §2, §3

[11] = target: T11, ADI-67445; assay: SPR Carterra avidity, yeast anti-ID
T11 construct: anti-CD3 antibody made in CHO cells, captured by anti-human Fc
Experimental: as §1, §2, §3

[12] = target: T12, ADI-67447; assay: SPR Carterra avidity, yeast anti-ID
T12 construct: anti-CD3 antibody made in CHO cells, captured by anti-human Fc
Experimental: as §1, §2, §3

[13] = target: T13, ADI-26909; assay: SPR Carterra avidity, yeast anti-ID
T13 construct: anti-CD3 antibody made in CHO cells, captured by anti-human Fc
Experimental: as §1, §2, §3

[14] = target: T14, ADI-26913 IgG; assay: SPR Carterra avidity, yeast anti-ID
T14 construct: anti-CD3 IgG
Experimental: as §1, §2, §3

[15] = target: T15, ADI-26921 IgG; assay: SPR Carterra avidity, yeast anti-ID
T15 construct: anti-CD3 IgG
T15 sequence (VH, as listed by the source limits assumed, chain 1 of 2): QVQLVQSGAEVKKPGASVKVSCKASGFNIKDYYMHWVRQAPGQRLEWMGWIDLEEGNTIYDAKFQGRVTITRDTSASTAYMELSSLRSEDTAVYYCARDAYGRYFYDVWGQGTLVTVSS
T15 sequence (VL, as listed by the source limits assumed, chain 2 of 2): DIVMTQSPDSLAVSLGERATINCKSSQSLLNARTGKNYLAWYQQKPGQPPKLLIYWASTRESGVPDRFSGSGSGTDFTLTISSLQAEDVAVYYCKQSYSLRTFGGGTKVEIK
Experimental: as §1, §2, §3

[16] = target: T16, ADI-26916 IgG; assay: SPR Carterra avidity, yeast anti-ID
T16 construct: anti-CD3 IgG
Experimental: as §1, §2, §3

[17] = target: T17, ADI-26912; assay: SPR Carterra avidity, yeast anti-ID
T17 construct: anti-CD3 antibody made in CHO cells, captured by anti-human Fc
T17 sequence (VH, as listed by the source, chain 1 of 2): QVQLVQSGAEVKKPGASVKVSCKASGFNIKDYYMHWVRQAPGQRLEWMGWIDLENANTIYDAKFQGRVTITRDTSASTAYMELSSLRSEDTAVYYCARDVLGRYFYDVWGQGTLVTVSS
Experimental: as §1, §2, §3

[18] = target: T18, ADI-26915; assay: SPR Carterra avidity, yeast anti-ID
T18 construct: anti-CD3 antibody made in CHO cells, captured by anti-human Fc
Experimental: as §1, §2, §3

[19] = target: T19, ADI-48587; assay: SPR Carterra avidity, yeast anti-ID
T19 construct: pH-dependent anti-CD3 antibody made in CHO cells
T19 sequence (VH, as listed by the source, chain 1 of 2): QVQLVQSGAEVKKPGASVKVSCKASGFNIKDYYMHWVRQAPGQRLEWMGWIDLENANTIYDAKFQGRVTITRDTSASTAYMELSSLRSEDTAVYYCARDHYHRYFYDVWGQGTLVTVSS
T19 sequence (VL, as listed by the source, chain 2 of 2): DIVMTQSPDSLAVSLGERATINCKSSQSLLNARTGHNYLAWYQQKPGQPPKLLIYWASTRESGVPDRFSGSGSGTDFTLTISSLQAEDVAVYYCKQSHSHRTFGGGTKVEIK
Experimental: as §1, §2, §3

[20] = target: T20, ADI-48592; assay: SPR Carterra avidity, yeast anti-ID
T20 construct: pH-dependent anti-CD3 antibody made in CHO cells
Experimental: as §1, §2, §3

[21] = target: T21, ADI-48650; assay: SPR Carterra avidity, yeast anti-ID
T21 construct: pH-dependent anti-CD3 antibody made in CHO cells
T21 sequence (VH, as listed by the source, chain 1 of 2): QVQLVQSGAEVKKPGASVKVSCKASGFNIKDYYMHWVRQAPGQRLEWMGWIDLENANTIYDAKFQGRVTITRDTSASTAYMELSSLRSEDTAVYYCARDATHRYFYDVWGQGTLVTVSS
T21 sequence (VL, as listed by the source, chain 2 of 2): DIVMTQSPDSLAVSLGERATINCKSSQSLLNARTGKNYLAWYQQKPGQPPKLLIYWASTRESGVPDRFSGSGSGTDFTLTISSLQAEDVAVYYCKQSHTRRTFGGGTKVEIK
Experimental: as §1, §2, §3

[22] = target: T22, ADI-74965; assay: SPR Carterra avidity, yeast anti-ID
T22 construct: pH-dependent anti-CD3 antibody made in CHO cells
T22 sequence (VH, as listed by the source, chain 1 of 2): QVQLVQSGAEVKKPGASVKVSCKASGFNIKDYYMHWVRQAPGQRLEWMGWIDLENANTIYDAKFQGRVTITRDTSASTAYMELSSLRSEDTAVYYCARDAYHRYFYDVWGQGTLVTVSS
Experimental: as §1, §2, §3

[23] = target: T23, ADI-74966; assay: SPR Carterra avidity, yeast anti-ID
T23 construct: pH-dependent anti-CD3 antibody made in CHO cells
T23 sequence (VL, as listed by the source, chain 2 of 2): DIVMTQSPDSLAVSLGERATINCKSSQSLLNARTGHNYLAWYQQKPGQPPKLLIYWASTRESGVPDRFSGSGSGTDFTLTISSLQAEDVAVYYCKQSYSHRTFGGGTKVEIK
Experimental: as §1, §2, §3

[24] = target: T24, ADI-74968; assay: SPR Carterra avidity, yeast anti-ID
T24 construct: pH-dependent anti-CD3 antibody made in CHO cells
Experimental: as §1, §2, §3

[25] = target: T25, ADI-76357; assay: SPR Carterra avidity, yeast anti-ID
T25 construct: anti-CD3 antibody made in CHO cells, captured by anti-human Fc
T25 sequence (VH, as listed by the source, chain 1 of 2): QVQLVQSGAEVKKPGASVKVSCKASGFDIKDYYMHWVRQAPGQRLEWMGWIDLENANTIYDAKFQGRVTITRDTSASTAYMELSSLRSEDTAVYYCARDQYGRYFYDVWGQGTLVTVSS
Experimental: as §1, §2, §3

[26] = target: T26, ADI-76358; assay: SPR Carterra avidity, yeast anti-ID
T26 construct: anti-CD3 antibody made in CHO cells, captured by anti-human Fc
Experimental: as §1, §2, §3

[27] = target: T27, ADI-76360; assay: SPR Carterra avidity, yeast anti-ID
T27 construct: anti-CD3 antibody made in CHO cells, captured by anti-human Fc
Experimental: as §1, §2, §3

[28] = target: T28, ADI-76361; assay: SPR Carterra avidity, yeast anti-ID
T28 construct: anti-CD3 antibody made in CHO cells, captured by anti-human Fc
Experimental: as §1, §2, §3

[29] = target: T29, ADI-76362; assay: SPR Carterra avidity, yeast anti-ID
T29 construct: anti-CD3 antibody made in CHO cells, captured by anti-human Fc
Experimental: as §1, §2, §3

[30] = target: T30, CTL-62223; assay: SPR Carterra avidity, yeast anti-ID
T30 construct: also called mosunetuzumab
T30 sequence (VH, as listed by the source, chain 1 of 2): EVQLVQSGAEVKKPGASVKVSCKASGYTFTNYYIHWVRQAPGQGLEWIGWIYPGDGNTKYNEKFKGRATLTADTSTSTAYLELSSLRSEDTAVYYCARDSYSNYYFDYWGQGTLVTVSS
T30 sequence (VL, as listed by the source, chain 2 of 2): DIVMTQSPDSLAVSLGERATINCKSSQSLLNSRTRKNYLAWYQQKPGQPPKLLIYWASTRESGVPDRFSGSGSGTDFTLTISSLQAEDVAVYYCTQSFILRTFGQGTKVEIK
Experimental: as §1, §2, §3

[31] = target: T31, ADI-22523 Fab; assay: BLI; tip anti-ID IgG, solution ADI-22523 Fab
T31 construct: anti-CD3 Fab by papain digestion of the IgG
Experimental: (§4) ForteBio affinity measurements were performed generally as previously described (Estep et al., MAbs. 2013 5(2):270-8). Briefly, ForteBio affinity measurements were performed by loading antibody IgG or Fabs on-line onto AHC sensors. Sensors were equilibrated off-line in assay buffer for 30 minutes and then monitored on-line for 60 seconds for baseline establishment. For avid binding measurement, sensors with loaded antibodies were exposed to IgG or Fab solutions for 3 minutes, afterwards they were transferred to assay buffer for 3 minutes for off-rate measurement. Kinetics data were fit using a 1:1 binding model in the data analysis software provided by ForteBio to obtain equilibrium dissociation constant (KD=koff/kₒₙ) values. In each column, tip-immobilized antibodies are listed first and solution antibodies second.

[32] = target: T32, ADI-22523 IgG; assay: BLI; tip anti-ID IgG, solution ADI-22523 IgG
T32 construct: anti-CD3 IgG
Experimental: as §4

[33] = target: T33, ADI-26919; assay: SPR Carterra avidity, yeast anti-ID, *koff limit
T33 construct: anti-CD3 antibody made in CHO cells, captured by anti-human Fc
Experimental: as §1, §2, §3

[34] = target: T34, ADI-26920 IgG; assay: SPR Carterra avidity, yeast anti-ID, *koff limit
T34 construct: anti-CD3 IgG
T34 sequence (VH, as listed by the source limits assumed, chain 1 of 2): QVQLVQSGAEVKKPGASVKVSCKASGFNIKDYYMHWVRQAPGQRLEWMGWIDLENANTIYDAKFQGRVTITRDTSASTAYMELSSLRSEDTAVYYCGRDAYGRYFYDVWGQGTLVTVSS
Experimental: as §1, §2, §3

[35] = target: T35, ADI-26924; assay: SPR Carterra avidity, yeast anti-ID, *koff limit
T35 construct: anti-CD3 antibody made in CHO cells, captured by anti-human Fc
T35 sequence (VH, as listed by the source, chain 1 of 2): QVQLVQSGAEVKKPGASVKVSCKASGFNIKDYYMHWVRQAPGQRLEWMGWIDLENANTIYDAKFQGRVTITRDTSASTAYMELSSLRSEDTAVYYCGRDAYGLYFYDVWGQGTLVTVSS
Experimental: as §1, §2, §3

[36] = target: T36, ADI-26943; assay: SPR Carterra avidity, yeast anti-ID, *koff limit
T36 construct: anti-CD3 antibody made in CHO cells, captured by anti-human Fc
Experimental: as §1, §2, §3

[37] = target: T37, ADI-74967; assay: SPR Carterra avidity, yeast anti-ID, *koff limit
T37 construct: pH-dependent anti-CD3 antibody made in CHO cells
T37 sequence (VL, as listed by the source, chain 2 of 2): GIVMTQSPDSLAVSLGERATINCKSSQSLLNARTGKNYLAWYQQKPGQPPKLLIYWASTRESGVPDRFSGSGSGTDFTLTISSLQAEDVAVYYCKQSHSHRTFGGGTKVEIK
Experimental: as §1, §2, §3

[38] = target: T38, ADI-76359; assay: SPR Carterra avidity, yeast anti-ID, *koff limit
T38 construct: anti-CD3 antibody made in CHO cells, captured by anti-human Fc
Experimental: as §1, §2, §3

[39] = target: T34, ADI-26920 IgG; assay: SPR Carterra avidity, yeast anti-ID
Experimental: as §1, §2, §3

[40] = target: T35, ADI-26924; assay: SPR Carterra avidity, yeast anti-ID
Experimental: as §1, §2, §3

[41] = target: T36, ADI-26943; assay: SPR Carterra avidity, yeast anti-ID
Experimental: as §1, §2, §3

[42] = target: T1, ADI-48576; assay: SPR Carterra avidity, yeast anti-ID
Experimental: as §1, §2, §3

[43] = target: T37, ADI-74967; assay: SPR Carterra avidity, yeast anti-ID
Experimental: as §1, §2, §3

[44] = target: T38, ADI-76359; assay: SPR Carterra avidity, yeast anti-ID
Experimental: as §1, §2, §3

B1: ADI-30242 (antibody, V domains shown)
VH: QVQLVQSGAEVKKPGSSVKVSCKASGGTFSSYAISWVRQAPGQGLEWMGGIIPIFGTANYAQKFQGRVTITADESTSTAYMELSSLRSEDTAVYYCARGAPNYYGSGGYDDGWFDPWGQGTLVTVSS
VL: EIVLTQSPGTLSLSPGERATLSCRASQSVSSSYLAWYQQKPGQAPRLLIYGASSRATGIPDRFSGSGSGTDFTLTISRLEPEDFAVYYCQQFGRDPTFGGGTKVEIK
notes: anti-ID IgG
binding result [1]: no binding (tested: up to 200 nM)
binding result [2]: no binding (tested: up to 200 nM)
binding result [3]: no binding (tested: up to 200 nM)
binding result [4]: no binding (tested: up to 200 nM)
Kd [5]: 11 nM
Kd [6]: 45 nM
Kd [7]: 45 nM
Kd [8]: 40 nM
Kd [9]: 5.9 nM
Kd [10]: 56 nM
Kd [11]: 11 nM
Kd [12]: 8.4 nM
Kd [13]: 17 nM
Kd [14]: 24 nM
Kd [15]: 21 nM
Kd [16]: 35 nM
Kd [17]: 33 nM
Kd [18]: 56 nM
Kd [19]: 43 nM
binding result [20]: binds
Kd [21]: 44 nM
Kd [22]: 45 nM
Kd [23]: 25 nM
Kd [24]: 36 nM
Kd [25]: 22 nM
Kd [26]: 42 nM
Kd [27]: 11 nM
Kd [28]: 15 nM
Kd [29]: 27 nM
Kd [30]: 31 nM
Kd [31]: 37.4 nM
Kd [32]: 0.57 nM
Kd [33]: 3.5 nM
Kd [34]: 4.2 nM
Kd [35]: 5.3 nM
Kd [36]: 6.2 nM
Kd [37]: 5.6 nM
Kd [38]: 3.7 nM

B2: ADI-34132 (antibody, V domains shown)
VH: B1 VH
VL: DIQLTQSPSSLSASVGDRVTITCRASQSISSYLNWYQQKPGKAPKLLIYAASNLQSGVPSRFSGSGSGTDFTLTISSLQPEDFATYYCQQTLHTPITFGGGTKVEIK
notes: anti-ID IgG
binding result [2]: no binding (tested: up to 200 nM)
binding result [3]: no binding (tested: up to 200 nM)
binding result [4]: no binding (tested: up to 200 nM)
Kd [5]: 0.35 nM
binding result [6]: binds
binding result [7]: binds
binding result [8]: binds
Kd [9]: 0.16 nM
binding result [10]: binds
Kd [11]: 0.65 nM
Kd [12]: 0.56 nM
Kd [13]: 0.9 nM
Kd [14]: 0.93 nM
Kd [39]: 0.15 nM
Kd [15]: 0.36 nM
Kd [16]: 0.6 nM
binding result [17]: binds
Kd [40]: 0.2 nM
binding result [18]: binds
Kd [41]: 0.15 nM
binding result [42]: binds
binding result [19]: binds
binding result [20]: binds
binding result [21]: binds
binding result [22]: binds
Kd [23]: 0.58 nM
Kd [43]: 0.28 nM
binding result [24]: binds
Kd [25]: 0.57 nM
binding result [26]: binds
Kd [44]: 0.12 nM
Kd [27]: 0.61 nM
Kd [28]: 0.15 nM
Kd [29]: 0.82 nM
Kd [30]: 0.99 nM
Kd [32]: 84.9 nM
Kd [33]: 0.044 nM
